Results published in patent US20230365658A1.
“And” between values parts separate entries of the source, which are not always exact repeats. Identical values can stand only once.

Tests used:
[1] = target: COV2-RBD (rpk9) B.1.1.529 R346K (BA.1.1) (SARS-CoV-2)
[2] = target: SARS-CoV-2 spike (S) glycoprotein, D614G (SARS-CoV-2) (UniProt P0DTC2); assay: cell-based or functional assay

| Substance | EC50 [1] | normalized pseudoneutralization IC50 [2] [µg/mL] |
| --- | --- | --- |
| COV2-2130 (antibody) | 4.13 µg/mL and 3.54 µg/mL |  |
| rS2K146 (antibody) |  | 0.00656 |
